Assay [1] deals with T1, R. rubrum rubisco (Rhodospirillum rubrum, UniProt P04718).
T1 construct: gene cbbM; form II large subunit, L2 homodimer
T1 sequence (P04718 1-466): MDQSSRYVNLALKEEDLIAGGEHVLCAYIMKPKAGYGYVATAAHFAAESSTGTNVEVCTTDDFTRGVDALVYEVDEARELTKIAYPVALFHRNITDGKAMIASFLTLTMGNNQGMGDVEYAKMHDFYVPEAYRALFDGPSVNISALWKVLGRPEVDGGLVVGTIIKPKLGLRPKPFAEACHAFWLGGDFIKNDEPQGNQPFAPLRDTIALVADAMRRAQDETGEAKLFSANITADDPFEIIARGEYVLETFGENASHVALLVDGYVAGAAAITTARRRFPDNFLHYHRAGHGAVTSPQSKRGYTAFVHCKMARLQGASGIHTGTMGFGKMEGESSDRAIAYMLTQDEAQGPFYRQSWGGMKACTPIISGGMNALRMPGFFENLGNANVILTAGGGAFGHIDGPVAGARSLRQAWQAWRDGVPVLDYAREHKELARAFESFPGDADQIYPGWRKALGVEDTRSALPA
In words: […]-CABP binding, liquid scintillation (active-site count). The note with it: activated enzyme; labelled compound.

The target in assay [2] is Ammonifex degensii KC4 form Iβ rubisco (Ammonifex degensii KC4). In words: SEC-SAXS; 100 µl samples, 1-45 mg/ml rubisco incubated with or without CABP; Shodex KW804 column; 20 mM HEPES-OH pH 8.0, 300 mM NaCl, 10 mM MgCl2, 10 mM NaHCO3; 20 °C; molecular weight by volume of correlation. Background: Size exclusion chromatography separates by hydrodynamic size, large species first.

Assay [3] concerns the target Fervidicoccus fontis form Iβ rubisco (Fervidicoccus fontis). Described as above.
Assay [4] deals with Prometheoarchaeum syntrophicum rubisco (Prometheoarchaeum syntrophicum). The assay is described as above.
The target in assay [5] is Rhodopseudomonas faecalis form II rubisco (Rhodopseudomonas faecalis). The assay is described as above.
The target in assay [6] is Thermodesulfobium acidiphilum form Iβ rubisco (Thermodesulfobium acidiphilum). The description is as above.

Usually stoichiometry N stands for a count of units in the complex or per binding partner.

In the case of `O=C(O)[C@@](O)(COP(=O)(O)O)[C@H](O)[C@H](O)COP(=O)(O)O` [CABP], the “14C-CABP binding, liquid scintillation (active-site count)” value in assay [1] is listed as “An aliquot of activated R. rubrum was used for determination of rubisco active sites”.

In assay [2], “Ammonifex degensii KC4 form Iβ rubisco (enzyme)” yielded a stoichiometry N of 2.

On to “Fervidicoccus fontis form Iβ rubisco (enzyme)”, for which the stoichiometry N in assay [3] is 2.

With “Prometheoarchaeum syntrophicum rubisco (enzyme)”, in assay [4], the stoichiometry N was determined as 2.

Regarding “Rhodopseudomonas faecalis form II rubisco (enzyme)”, in assay [5], the stoichiometry N is 6.

“Thermodesulfobium acidiphilum form Iβ rubisco (enzyme)”: in assay [6], the stoichiometry N came to 2.

The values above are taken from PMC13454268 (Nature Communications, 2026).
